B1: mIFN-γ: mouse Interferon Gamma Protein (Sino Biological) (protein, UniProt P01580 23-155, looked up)
Interferon gamma: HGTVIESLESLNNYFNSSGIDVEEKSLFLDIWRNWQKDGDMKILQSQIISFYLRLFEVLKDNQAISNNISVIESHLITTFFSNSKAKKDAFMSIAKFEVNNPQVQRQAFNELIRVVHQLLPESSLRKRKRSRC

How the values were obtained:
[1] = test system: PDAC; conditions: PDAC patients, standard of care; cited from earlier work
[2] = test system: PD-L1; test: Fold increase in PD-L1 expression with mIFN-γ (flow cytometry); assay type: cell-based, murine; conditions: 40 ng/ml, 24 h
Experimental: Fold increase in PD-L1 expression and binding specificity of iTPALs: Confluent AT84, LLC, MC38, ID8, CT1BA5 and BMFA3 cells were washed in PBS, trypsinized, and collected in their respective media. The cells were counted and diluted to seed 1.5×10^5 cells per well in a 6 well plate (Corning) overnight. The next day, the media was replaced with fresh media containing 40 ng/ml of mIFN-γ and incubated for an additional 24 h. The cells were then trypsinized, dispersed in their respective media and counted using a cell counter (Bio-Rad). Cells were diluted in their respective media to obtain a concentration of 5×10^5 cells/ml. Then, 100 μl of the counted cells were placed in the 1.5 ml microcentrifuge tubes. To calculate the fold increase in PD-L1 expression, 100 μl of 40 µg/ml α-PD-L1 equivalent of α-PD-L1-AF488 were then added to the cells whereas to monitor the binding specificity of iTPALs (17α), 100 μl of 500 nM BPD-PC equivalent of either 100 μl PALs or TPALs (17α) added to the cells and incubated at 37° C. for 30 mins in the dark. The cells were then pelleted by […] for 5 mins at 1000×g, and the supernatants containing free unbound PALs and iTPALs (17α) were discarded. The cells were then resuspended in 300 μl of FACS buffer and transferred into flow cytometry tubes. For each condition, 10,000 cells were analyzed using a BD Fortessa flow cytometry analyzer with a 405 nm laser/710 nm bandpass detector pair for BPD-PC fluorescence and a 488 nm laser/530 nm detector pair for AF488 fluorescence. The data was then analyzed using FlowJo to calculate the median fluorescence of BPD-PC and AF488. The increase in PD-L1 expression after treating the cells with mIFN-γ was calculated as shown in Equation 1 below and the binding specificity of iTPALs (17α) was calculated as shown in Equation 2 below.

| Molecule | Overall survival [1] [months] | Increase in PD-L1 expression ([2]; AT84 head and neck cancer cells) [fold] | Increase in PD-L1 expression ([2]; BMFA3 PDAC cells) [fold] | Increase in PD-L1 expression ([2]; CT1BA5 PDAC cells) [fold] | Increase in PD-L1 expression ([2]; ID8 ovarian cancer cells) [fold] | Increase in PD-L1 expression ([2]; LLC lung cancer cells) [fold] | Increase in PD-L1 expression ([2]; MC38 colon cancer cells) [fold] |
| --- | --- | --- | --- | --- | --- | --- | --- |
| FOLFIRINOX | 11.1 | – | – | – | – | – | – |
| B1 | – | 1.8 | 2.5 | 1.5 | 2.9 | 1.4 | 1.8 |

From patent US20250205358A1, “PHOTOACTIVATABLE NANOPARTICLES AND USES THEREOF AS AGENTS FOR IMMUNOTHERAPY COMBINATIONS” (Board of Regents, The University of Texas System, priority 2023, published 2025)
